From the supplement of paper PMC10567573

B1: EIF5 (parent)
chain: KQTIGNSCKACGYRGMLDTHHKLC
B2: TFE3 (parent)
chain: FPSDHLGDLGDPFHLGLEDILMEE

Variants of: B1
Assay: protein stability index of a GFP-peptide fusion (GPS, HEK-293T) (PSI 1-6); higher = more stable
Settings: c terminus: a fixed tail appended
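Also: lentivirally expressed fusions sorted by FACS into six bins by GFP to DsRed ratio, PSI derived from sequencing read proportions per bin multiplied by bin number.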

Q: With KQTIGNSCKACGYRGMLDTHHYLC as the variant, how does the protein stability index read?
A: The protein stability index was 2.73.

Q: Which protein stability index does the source give for KQTIGNSCKACGYRGMLYTHHKLC here?
A: The protein stability index was 2.09.

Q: For KQTIGNSCKACGYRGMLSTHHKLC, which protein stability index is on record?
A: The protein stability index was 3.22.

Q: With KQTIGNSCKACGYRGMLLTHHKLC as the variant, how does the protein stability index read?
A: Its protein stability index is 2.38.

Q: Which protein stability index does the source give for KQTIGNSCKACGYRGMLFTHHKLC here?
A: The protein stability index was 2.08.

Q: With KQTIGNSCKACGYRGMLPTHHKLC as the variant, how does the protein stability index read?
A: The protein stability index was 2.71.

Q: With KQTIGNSCKACGYRGMLGTHHKLC as the variant, how does the protein stability index read?
A: The protein stability index was 2.81.

Q: Which protein stability index does the source give for KQTIGNSCKACGYRGMLNTHHKLC here?
A: Its protein stability index is 2.88.

Q: Which protein stability index does the source give for KQTIGNSCKACGYRGMLMTHHKLC here?
A: Its protein stability index is 2.56.

Q: For KQTIGNSCKACGYRGMLWTHHKLC, which protein stability index is on record?
A: Its protein stability index is 1.99.

Q: Which protein stability index does the source give for KQTIGNSCKACGYRGMLHTHHKLC here?
A: The protein stability index was 3.07.

Q: With KQTIGNSCKACGYRGMLVTHHKLC as the variant, how does the protein stability index read?
A: The protein stability index was 2.39.

Q: For KQTIGNSCKACGYRGMLKTHHKLC, which protein stability index is on record?
A: The protein stability index was 2.46.

Q: For KQTIGNSCKACGYRGMLQTHHKLC, which protein stability index is on record?
A: Its protein stability index is 2.29.

Q: With KQTIGNSCKACGYRGMLTTHHKLC as the variant, how does the protein stability index read?
A: Its protein stability index is 2.96.

Q: With KQTIGNSCKACGYRGMLRTHHKLC as the variant, how does the protein stability index read?
A: Its protein stability index is 2.65.

Q: With KQTIGNSCKACGYRGMLITHHKLC as the variant, how does the protein stability index read?
A: The protein stability index was 2.24.

Q: For KQTIGNSCKACGYRGMLDTHVKLC, which protein stability index is on record?
A: Its protein stability index is 3.29.

Q: Which protein stability index does the source give for KQTIGNSCKACGYRGMLDTHEKLC here?
A: Its protein stability index is 3.21.

Q: For KQTIGNSCKACGYRGMLDTHFKLC, which protein stability index is on record?
A: The protein stability index was 2.35.

Q: With KQTIGNSCKACGYRGMLDTHMKLC as the variant, how does the protein stability index read?
A: Its protein stability index is 2.89.

Q: With KQTIGNSCKACGYRGMLDTHWKLC as the variant, how does the protein stability index read?
A: The protein stability index was 2.45.

Q: Which protein stability index does the source give for KQTIGNSCKACGYRGMLDTHIKLC here?
A: Its protein stability index is 2.88.

Q: With KQTIGNSCKACGYRGMLDTHNKLC as the variant, how does the protein stability index read?
A: Its protein stability index is 3.25.

Q: Which protein stability index does the source give for KQTIGNSCKACGYRGMLDTHDKLC here?
A: Its protein stability index is 3.75.

Q: For KQTIGNSCKACGYRGMLDTHQKLC, which protein stability index is on record?
A: The protein stability index was 2.51.

Q: For KQTIGNSCKACGYRGMLDTHRKLC, which protein stability index is on record?
A: The protein stability index was 3.

Q: For KQTIGNSCKACGYRGMLDTHPKLC, which protein stability index is on record?
A: The protein stability index was 3.17.

Q: With KQTIGNSCKACGYRGMLDTHTKLC as the variant, how does the protein stability index read?
A: Its protein stability index is 3.17.

Q: With KQTIGNSCKACGYRGMLDTHAKLC as the variant, how does the protein stability index read?
A: Its protein stability index is 2.7.

Q: Which protein stability index does the source give for KQTIGNSCKACGYRGMLDTHGKLC here?
A: The protein stability index was 3.17.

Q: For KQTIGNSCKACGYRGMLDTHYKLC, which protein stability index is on record?
A: Its protein stability index is 3.32.

Q: For KQTIGNSCKACGYRGMLDTHSKLC, which protein stability index is on record?
A: The protein stability index was 2.9.

Q: Which protein stability index does the source give for KQTIGNSCKACGYRGMLDTHLKLC here?
A: The protein stability index was 2.77.

Q: Which protein stability index does the source give for KQTIGNSCKACGYRGMLDTHKKLC here?
A: Its protein stability index is 3.02.

Q: Which protein stability index does the source give for KQTIGNSCKACGYRGMLDTHCKLC here?
A: Its protein stability index is 3.17.

Variants of: B2
Assay: as above
Settings: c terminus: a fixed tail appended

Q: For FPEDHLGDLGDPFHLGLEDILMEE, which protein stability index is on record?
A: The protein stability index was 3.97.

Q: For FPQDHLGDLGDPFHLGLEDILMEE, which protein stability index is on record?
A: The protein stability index was 3.57.

Q: With FPMDHLGDLGDPFHLGLEDILMEE as the variant, how does the protein stability index read?
A: Its protein stability index is 2.59.

Q: Which protein stability index does the source give for FPDDHLGDLGDPFHLGLEDILMEE here?
A: Its protein stability index is 4.07.

Q: With FPCDHLGDLGDPFHLGLEDILMEE as the variant, how does the protein stability index read?
A: The protein stability index was 2.46.

Q: For FPFDHLGDLGDPFHLGLEDILMEE, which protein stability index is on record?
A: Its protein stability index is 2.29.

Q: With FPHDHLGDLGDPFHLGLEDILMEE as the variant, how does the protein stability index read?
A: The protein stability index was 2.91.

Q: Which protein stability index does the source give for FPYDHLGDLGDPFHLGLEDILMEE here?
A: Its protein stability index is 2.45.

Q: With FPKDHLGDLGDPFHLGLEDILMEE as the variant, how does the protein stability index read?
A: The protein stability index was 2.67.

Q: For FPIDHLGDLGDPFHLGLEDILMEE, which protein stability index is on record?
A: The protein stability index was 3.02.

Q: For FPGDHLGDLGDPFHLGLEDILMEE, which protein stability index is on record?
A: Its protein stability index is 2.97.

Q: With FPVDHLGDLGDPFHLGLEDILMEE as the variant, how does the protein stability index read?
A: The protein stability index was 2.56.

Q: With FPADHLGDLGDPFHLGLEDILMEE as the variant, how does the protein stability index read?
A: Its protein stability index is 2.85.

Q: Which protein stability index does the source give for FPNDHLGDLGDPFHLGLEDILMEE here?
A: The protein stability index was 3.16.

Q: With FPTDHLGDLGDPFHLGLEDILMEE as the variant, how does the protein stability index read?
A: Its protein stability index is 2.9.

Q: With FPPDHLGDLGDPFHLGLEDILMEE as the variant, how does the protein stability index read?
A: Its protein stability index is 3.79.

Q: With FPRDHLGDLGDPFHLGLEDILMEE as the variant, how does the protein stability index read?
A: The protein stability index was 2.6.

Q: For FPLDHLGDLGDPFHLGLEDILMEE, which protein stability index is on record?
A: Its protein stability index is 3.04.

Q: Which protein stability index does the source give for FPWDHLGDLGDPFHLGLEDILMEE here?
A: The protein stability index was 2.2.

Q: With FPSAHLGDLGDPFHLGLEDILMEE as the variant, how does the protein stability index read?
A: The protein stability index was 2.26.

Q: With FYSDHLGDLGDPFHLGLEDILMEE as the variant, how does the protein stability index read?
A: Its protein stability index is 3.

Q: For FGSDHLGDLGDPFHLGLEDILMEE, which protein stability index is on record?
A: Its protein stability index is 3.62.

Q: Which protein stability index does the source give for FNSDHLGDLGDPFHLGLEDILMEE here?
A: The protein stability index was 4.24.

Q: For FSSDHLGDLGDPFHLGLEDILMEE, which protein stability index is on record?
A: The protein stability index was 3.96.

Q: With FTSDHLGDLGDPFHLGLEDILMEE as the variant, how does the protein stability index read?
A: Its protein stability index is 2.74.

Q: For FCSDHLGDLGDPFHLGLEDILMEE, which protein stability index is on record?
A: The protein stability index was 2.57.

Q: For FMSDHLGDLGDPFHLGLEDILMEE, which protein stability index is on record?
A: The protein stability index was 3.25.

Q: Which protein stability index does the source give for FFSDHLGDLGDPFHLGLEDILMEE here?
A: The protein stability index was 2.83.

Q: For FVSDHLGDLGDPFHLGLEDILMEE, which protein stability index is on record?
A: Its protein stability index is 1.5.

Q: For FASDHLGDLGDPFHLGLEDILMEE, which protein stability index is on record?
A: The protein stability index was 2.62.

Q: For FLSDHLGDLGDPFHLGLEDILMEE, which protein stability index is on record?
A: The protein stability index was 3.37.

Q: With FISDHLGDLGDPFHLGLEDILMEE as the variant, how does the protein stability index read?
A: Its protein stability index is 2.12.

Q: For FWSDHLGDLGDPFHLGLEDILMEE, which protein stability index is on record?
A: Its protein stability index is 2.04.

Q: For FHSDHLGDLGDPFHLGLEDILMEE, which protein stability index is on record?
A: Its protein stability index is 1.84.

Q: With FDSDHLGDLGDPFHLGLEDILMEE as the variant, how does the protein stability index read?
A: The protein stability index was 3.95.

Q: For FESDHLGDLGDPFHLGLEDILMEE, which protein stability index is on record?
A: The protein stability index was 4.51.

Q: With FKSDHLGDLGDPFHLGLEDILMEE as the variant, how does the protein stability index read?
A: The protein stability index was 3.97.

Q: For FQSDHLGDLGDPFHLGLEDILMEE, which protein stability index is on record?
A: The protein stability index was 2.63.

Q: With FRSDHLGDLGDPFHLGLEDILMEE as the variant, how does the protein stability index read?
A: Its protein stability index is 3.52.

Q: With GPSDHLGDLGDPFHLGLEDILMEE as the variant, how does the protein stability index read?
A: The protein stability index was 5.12.

Q: Which protein stability index does the source give for EPSDHLGDLGDPFHLGLEDILMEE here?
A: The protein stability index was 4.96.

Q: Which protein stability index does the source give for TPSDHLGDLGDPFHLGLEDILMEE here?
A: The protein stability index was 4.74.

Q: For CPSDHLGDLGDPFHLGLEDILMEE, which protein stability index is on record?
A: The protein stability index was 5.03.

Q: With LPSDHLGDLGDPFHLGLEDILMEE as the variant, how does the protein stability index read?
A: The protein stability index was 4.55.

Q: Which protein stability index does the source give for RPSDHLGDLGDPFHLGLEDILMEE here?
A: The protein stability index was 4.64.

Q: With DPSDHLGDLGDPFHLGLEDILMEE as the variant, how does the protein stability index read?
A: The protein stability index was 4.84.

Q: For PPSDHLGDLGDPFHLGLEDILMEE, which protein stability index is on record?
A: The protein stability index was 5.13.

Q: Which protein stability index does the source give for HPSDHLGDLGDPFHLGLEDILMEE here?
A: The protein stability index was 4.7.

Q: Which protein stability index does the source give for YPSDHLGDLGDPFHLGLEDILMEE here?
A: The protein stability index was 3.3.

Q: Which protein stability index does the source give for APSDHLGDLGDPFHLGLEDILMEE here?
A: Its protein stability index is 5.42.

Q: For WPSDHLGDLGDPFHLGLEDILMEE, which protein stability index is on record?
A: The protein stability index was 4.36.

Q: With IPSDHLGDLGDPFHLGLEDILMEE as the variant, how does the protein stability index read?
A: The protein stability index was 4.61.

Q: For QPSDHLGDLGDPFHLGLEDILMEE, which protein stability index is on record?
A: The protein stability index was 4.57.

Q: With VPSDHLGDLGDPFHLGLEDILMEE as the variant, how does the protein stability index read?
A: The protein stability index was 4.88.

Q: With MPSDHLGDLGDPFHLGLEDILMEE as the variant, how does the protein stability index read?
A: The protein stability index was 4.82.

Q: Which protein stability index does the source give for NPSDHLGDLGDPFHLGLEDILMEE here?
A: Its protein stability index is 4.91.

Q: With SPSDHLGDLGDPFHLGLEDILMEE as the variant, how does the protein stability index read?
A: Its protein stability index is 5.1.

Q: For KPSDHLGDLGDPFHLGLEDILMEE, which protein stability index is on record?
A: The protein stability index was 4.41.
